T1: wild-type human Claudin 1 protein (human, UniProt O95832 1-211)
T1 construct: Expressed on cells by retrovirus; also called hCLDN1
T1 sequence: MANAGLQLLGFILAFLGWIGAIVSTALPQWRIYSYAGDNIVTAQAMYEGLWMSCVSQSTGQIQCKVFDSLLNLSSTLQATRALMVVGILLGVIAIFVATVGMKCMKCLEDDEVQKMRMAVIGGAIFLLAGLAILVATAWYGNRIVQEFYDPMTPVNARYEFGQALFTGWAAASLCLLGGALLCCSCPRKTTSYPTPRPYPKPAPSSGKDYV

T2: wild-type human Claudin 2 protein (human, UniProt P57739 1-230)
T2 construct: Expressed on cells by retrovirus; Wording leaves open whether the entry is the protein or the DNA; also called hCLDN2
T2 sequence: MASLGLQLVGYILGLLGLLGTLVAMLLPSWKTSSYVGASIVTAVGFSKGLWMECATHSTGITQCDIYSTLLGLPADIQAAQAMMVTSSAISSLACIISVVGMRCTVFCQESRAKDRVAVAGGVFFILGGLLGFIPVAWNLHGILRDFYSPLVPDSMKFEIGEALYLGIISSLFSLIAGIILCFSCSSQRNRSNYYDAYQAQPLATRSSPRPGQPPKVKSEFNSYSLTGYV

T3: wild-type human Claudin 3 protein (human, UniProt O15551 1-220)
T3 construct: Expressed on cells by retrovirus; Wording leaves open whether the entry is the protein or the DNA; also called hCLDN3
T3 sequence: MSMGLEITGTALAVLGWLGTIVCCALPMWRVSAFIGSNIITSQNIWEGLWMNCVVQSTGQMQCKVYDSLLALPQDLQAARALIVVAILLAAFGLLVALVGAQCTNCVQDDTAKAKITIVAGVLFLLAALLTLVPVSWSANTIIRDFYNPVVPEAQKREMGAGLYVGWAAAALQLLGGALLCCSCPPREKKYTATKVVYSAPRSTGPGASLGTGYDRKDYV

T4: wild-type human Claudin 4 protein (human, UniProt O14493 1-209)
T4 construct: Expressed on cells by retrovirus; Wording leaves open whether the entry is the protein or the DNA; also called hCLDN4
T4 sequence: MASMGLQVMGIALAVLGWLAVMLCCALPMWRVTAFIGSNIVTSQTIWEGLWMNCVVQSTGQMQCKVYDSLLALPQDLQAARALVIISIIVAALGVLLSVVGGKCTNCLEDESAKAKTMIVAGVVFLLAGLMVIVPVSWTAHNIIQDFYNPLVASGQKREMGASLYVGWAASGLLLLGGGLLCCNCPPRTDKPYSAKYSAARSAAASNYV

T5: wild-type human Claudin 6 protein (human, UniProt P56747 1-220)
T5 construct: Expressed on cells by retrovirus; Wording leaves open whether the entry is the protein or the DNA; also called hCLDN6
T5 sequence: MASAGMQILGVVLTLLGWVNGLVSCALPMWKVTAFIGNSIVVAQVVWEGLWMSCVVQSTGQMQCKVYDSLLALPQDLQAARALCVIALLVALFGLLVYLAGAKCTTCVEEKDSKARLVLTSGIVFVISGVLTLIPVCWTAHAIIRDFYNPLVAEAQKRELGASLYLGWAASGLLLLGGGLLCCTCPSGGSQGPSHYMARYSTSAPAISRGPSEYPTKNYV

T6: wild-type human Claudin 7 protein (human, UniProt O95471 1-211)
T6 construct: Expressed on cells by retrovirus; Wording leaves open whether the entry is the protein or the DNA; also called hCLDN7
T6 sequence: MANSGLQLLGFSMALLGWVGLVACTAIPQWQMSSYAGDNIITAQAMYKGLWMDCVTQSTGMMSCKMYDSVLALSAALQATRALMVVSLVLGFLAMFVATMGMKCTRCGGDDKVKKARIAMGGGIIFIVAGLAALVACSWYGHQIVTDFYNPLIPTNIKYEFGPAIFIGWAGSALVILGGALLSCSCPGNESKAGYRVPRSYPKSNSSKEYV

T7: wild-type mouse Claudin 2 protein (mouse, UniProt O88552 1-230)
T7 construct: Expressed on cells by retrovirus; Wording leaves open whether the entry is the protein or the DNA; also called mCLDN2
T7 sequence: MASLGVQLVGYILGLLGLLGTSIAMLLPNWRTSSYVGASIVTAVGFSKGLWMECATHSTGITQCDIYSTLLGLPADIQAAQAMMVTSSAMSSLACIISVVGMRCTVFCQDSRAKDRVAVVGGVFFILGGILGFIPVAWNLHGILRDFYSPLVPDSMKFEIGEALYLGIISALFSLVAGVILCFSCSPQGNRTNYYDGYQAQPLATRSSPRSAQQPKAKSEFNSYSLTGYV

T8: wild-type mouse Claudin 4 protein (mouse, UniProt O35054 1-210)
T8 construct: Expressed on cells by retrovirus; Wording leaves open whether the entry is the protein or the DNA; also called mCLDN4
T8 sequence: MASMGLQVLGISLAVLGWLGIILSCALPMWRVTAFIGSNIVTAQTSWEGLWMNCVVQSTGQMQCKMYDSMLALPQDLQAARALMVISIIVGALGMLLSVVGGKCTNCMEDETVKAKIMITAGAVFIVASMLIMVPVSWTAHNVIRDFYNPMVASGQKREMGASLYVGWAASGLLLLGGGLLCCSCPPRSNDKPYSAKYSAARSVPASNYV

T9: wild-type mouse Claudin 5 protein (mouse, UniProt O54942 1-218)
T9 construct: also called mCLDN5
T9 sequence: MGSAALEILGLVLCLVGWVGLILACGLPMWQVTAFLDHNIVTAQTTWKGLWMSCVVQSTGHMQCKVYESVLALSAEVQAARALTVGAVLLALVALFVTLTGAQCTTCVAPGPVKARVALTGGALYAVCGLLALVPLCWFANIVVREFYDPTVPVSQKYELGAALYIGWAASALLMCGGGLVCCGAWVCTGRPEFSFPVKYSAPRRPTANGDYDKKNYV


Tests used:
Experiment in all cases: FACS on Claudin-expressing cells
[1] = molecular target: T1, wild-type human Claudin 1 protein
Procedure: (§1) The cells were washed three times with 0.2% BSA-TBS, and then mixed with 100 μL of a secondary antibody solution (FITC conjugated goat anti-mouse IgG+IgM in 1% BSA-PBS (1:400)), followed by a reaction at 4° C. for 1 hour. The cells were washed with 0.2% BSA-TBS, and FACS analysis (FACS caliber, BD Bioscience) was performed.

[2] = molecular target: T2, wild-type human Claudin 2 protein
Procedure: as §1

[3] = molecular target: T3, wild-type human Claudin 3 protein
Procedure: as §1

[4] = molecular target: T4, wild-type human Claudin 4 protein
Procedure: as §1

[5] = molecular target: T5, wild-type human Claudin 6 protein
Procedure: as §1

[6] = molecular target: T6, wild-type human Claudin 7 protein
Procedure: as §1

[7] = molecular target: T7, wild-type mouse Claudin 2 protein
Procedure: as §1

[8] = molecular target: T8, wild-type mouse Claudin 4 protein
Procedure: as §1

[9] = molecular target: T9, wild-type mouse Claudin 5 protein
Procedure: as §1

binding result [1]	binding result [2]	binding result [3]	binding result [4]	binding result [5]	binding result [6]	binding result [7]	binding result [8]	binding result [9]	Binder
no binding (tested: 10 µg/mL)	no binding (tested: 10 µg/mL)	no binding (tested: 10 µg/mL)	no binding (tested: 10 µg/mL)	no binding (tested: 10 µg/mL)	no binding (tested: 10 µg/mL)	no binding (tested: 10 µg/mL)	no binding (tested: 10 µg/mL)	no binding (tested: 10 µg/mL)	antibody 2B12 (antibody, IgG2a, V domains shown, also called antibody A) VH: QVQLQQSGAELARPGASVKLSCKASGYTFTRFGMSWVKQRTGQGLEWIGEIYPGSGDTYYSENFKGKATLTADKSSGTAYMELRSLTSEDSAVYFCARWGIYYGNPYAMDYWGQGTSVTVSS VL: DIVMTQAAPSVPVTPGESVSISCRSSKSLLHSNGNTYLYWFLQRPGQSPQLLIYRMSNLASGVPDRFSGSGSGTAFTLRISRVEAEDVGVYYCLQHLEYPFTFGSGTKLEIKR
no binding (tested: 10 µg/mL)	no binding (tested: 10 µg/mL)	no binding (tested: 10 µg/mL)	no binding (tested: 10 µg/mL)	no binding (tested: 10 µg/mL)	no binding (tested: 10 µg/mL)	no binding (tested: 10 µg/mL)	no binding (tested: 10 µg/mL)	no binding (tested: 10 µg/mL)	antibody 2B1 (antibody, IgG2a, V domains shown, also called antibody B) VH: QVQLQQPGAELVKPGASVKLSCKASGYTFTTFWIHWVKQRPGRGLEWIGRIAPYSGGTTYNEKFKSKATLTVDRPSTTAYMQLISLTSEDSAVYYCARWDFTYGSNLDYWGQGTTLTVSS VL: DIVMTQSQKFMSTSVGDRVSIPCKASQNVRTAVAWYQQKPGQSPKALIYLASNRHTGVPDRFTGSGSGTDFTLTISNVQSEDLADYFCLGHWDYPYTFGGGTKLEIKR

From patent US20200223915A1 (OSAKA UNIVERSITY, published 2020)
